Reference: patent US12565520B2, “Chemically-stabilized allosteric modulators of leucine-rich repeat kinase 2 (LRRK2)” (UNIVERSITY OF GEORGIA RESEARCH FOUNDATION, INC., priority 2020, dated 2026)
Entries after “also recorded” stand apart in the source; their conditions may differ.

Columns and labels:
[1] = test system: LRRK2 (R1441G) kinase activity as Rab10 phosphorylation; assay: Rab10 pT73 phosphorylation immunoblot, HEK293T with LRRK2 R1441G and Rab29; type: cell-based; conditions: LRRK2 R1441G + Rab29, 10 μM peptide, 12 h / 15 hours
Method: Rab10 Immunoblotting. HEK293T cells were co-transfected at a confluency of 50-60% with Strep-FLAG tagged LRRK2 R1441G and Rab29 as well as Rab10 (both HA-FLAG tagged) using polyethylenimine (PEI, Polyscience) as previously described(46). […] […], cells were lysed in twice, first in lysis buffer (30 mM Tris-HCL (pH7.4), 150 mM NaCl, 0.5% NP-40, complete protease Inhibitor cocktail and phosphatase inhibitor cocktail II & III (Sigma Aldrich) and again after centrifugation in 1% SDS. Cleared lysates were adjusted to 2 μg/μl with 5× Laemmli Buffer and lysis buffer. Samples were used for denaturating electrophoresis using 10% Bis-Tris gels (NuPAGE) and for western blotting onto PVDF membranes. Membranes were blocked with 5% non-fat dry milk dissolved in TBS-T (30 mM Tris-HCL (pH 7.4), 0.1% Tween 20) and separated horizontally at 140 kDa. Primary antibodies were added TBS-T with 5% BSA (pT73 Rab10) 1:2,000 (ab230261) and pS1292 LRRK2 1:2,000 (ab203181)) or total protein antibodies (Rab10(ERP13424) 1:5,000 (ab181367) or LRRK2 (clone 24D8) 1:5,000 (Gloeckner lab)), respectively. Membranes were incubated with HRP-conjugated secondary antibodies diluted in TBS-T with 5% milk prior to imaging using ECL Plus (Pierce) with exposure to photometric films (Hyperfilms, GE Healthcare). […]

GFP-tagged LRRK2 = molecular target: T1, GFP-tagged LRRK2 (Homo sapiens, UniProt Q5S007); assay: Pulldown of LRRK2 from cell lysate with biotin-labeled peptides; type: binding; conditions: 10 μM biotin-labeled peptide, lysate of HEK293 cells overexpressing GFP-tagged LRRK2
T1 construct: co-transfecting HEK293 cells with GFP-tagged and strep-tagged full-length LRRK2; expressed in transfected cells; host or cells: HEK293
T1 sequence (Q5S007 whole entry): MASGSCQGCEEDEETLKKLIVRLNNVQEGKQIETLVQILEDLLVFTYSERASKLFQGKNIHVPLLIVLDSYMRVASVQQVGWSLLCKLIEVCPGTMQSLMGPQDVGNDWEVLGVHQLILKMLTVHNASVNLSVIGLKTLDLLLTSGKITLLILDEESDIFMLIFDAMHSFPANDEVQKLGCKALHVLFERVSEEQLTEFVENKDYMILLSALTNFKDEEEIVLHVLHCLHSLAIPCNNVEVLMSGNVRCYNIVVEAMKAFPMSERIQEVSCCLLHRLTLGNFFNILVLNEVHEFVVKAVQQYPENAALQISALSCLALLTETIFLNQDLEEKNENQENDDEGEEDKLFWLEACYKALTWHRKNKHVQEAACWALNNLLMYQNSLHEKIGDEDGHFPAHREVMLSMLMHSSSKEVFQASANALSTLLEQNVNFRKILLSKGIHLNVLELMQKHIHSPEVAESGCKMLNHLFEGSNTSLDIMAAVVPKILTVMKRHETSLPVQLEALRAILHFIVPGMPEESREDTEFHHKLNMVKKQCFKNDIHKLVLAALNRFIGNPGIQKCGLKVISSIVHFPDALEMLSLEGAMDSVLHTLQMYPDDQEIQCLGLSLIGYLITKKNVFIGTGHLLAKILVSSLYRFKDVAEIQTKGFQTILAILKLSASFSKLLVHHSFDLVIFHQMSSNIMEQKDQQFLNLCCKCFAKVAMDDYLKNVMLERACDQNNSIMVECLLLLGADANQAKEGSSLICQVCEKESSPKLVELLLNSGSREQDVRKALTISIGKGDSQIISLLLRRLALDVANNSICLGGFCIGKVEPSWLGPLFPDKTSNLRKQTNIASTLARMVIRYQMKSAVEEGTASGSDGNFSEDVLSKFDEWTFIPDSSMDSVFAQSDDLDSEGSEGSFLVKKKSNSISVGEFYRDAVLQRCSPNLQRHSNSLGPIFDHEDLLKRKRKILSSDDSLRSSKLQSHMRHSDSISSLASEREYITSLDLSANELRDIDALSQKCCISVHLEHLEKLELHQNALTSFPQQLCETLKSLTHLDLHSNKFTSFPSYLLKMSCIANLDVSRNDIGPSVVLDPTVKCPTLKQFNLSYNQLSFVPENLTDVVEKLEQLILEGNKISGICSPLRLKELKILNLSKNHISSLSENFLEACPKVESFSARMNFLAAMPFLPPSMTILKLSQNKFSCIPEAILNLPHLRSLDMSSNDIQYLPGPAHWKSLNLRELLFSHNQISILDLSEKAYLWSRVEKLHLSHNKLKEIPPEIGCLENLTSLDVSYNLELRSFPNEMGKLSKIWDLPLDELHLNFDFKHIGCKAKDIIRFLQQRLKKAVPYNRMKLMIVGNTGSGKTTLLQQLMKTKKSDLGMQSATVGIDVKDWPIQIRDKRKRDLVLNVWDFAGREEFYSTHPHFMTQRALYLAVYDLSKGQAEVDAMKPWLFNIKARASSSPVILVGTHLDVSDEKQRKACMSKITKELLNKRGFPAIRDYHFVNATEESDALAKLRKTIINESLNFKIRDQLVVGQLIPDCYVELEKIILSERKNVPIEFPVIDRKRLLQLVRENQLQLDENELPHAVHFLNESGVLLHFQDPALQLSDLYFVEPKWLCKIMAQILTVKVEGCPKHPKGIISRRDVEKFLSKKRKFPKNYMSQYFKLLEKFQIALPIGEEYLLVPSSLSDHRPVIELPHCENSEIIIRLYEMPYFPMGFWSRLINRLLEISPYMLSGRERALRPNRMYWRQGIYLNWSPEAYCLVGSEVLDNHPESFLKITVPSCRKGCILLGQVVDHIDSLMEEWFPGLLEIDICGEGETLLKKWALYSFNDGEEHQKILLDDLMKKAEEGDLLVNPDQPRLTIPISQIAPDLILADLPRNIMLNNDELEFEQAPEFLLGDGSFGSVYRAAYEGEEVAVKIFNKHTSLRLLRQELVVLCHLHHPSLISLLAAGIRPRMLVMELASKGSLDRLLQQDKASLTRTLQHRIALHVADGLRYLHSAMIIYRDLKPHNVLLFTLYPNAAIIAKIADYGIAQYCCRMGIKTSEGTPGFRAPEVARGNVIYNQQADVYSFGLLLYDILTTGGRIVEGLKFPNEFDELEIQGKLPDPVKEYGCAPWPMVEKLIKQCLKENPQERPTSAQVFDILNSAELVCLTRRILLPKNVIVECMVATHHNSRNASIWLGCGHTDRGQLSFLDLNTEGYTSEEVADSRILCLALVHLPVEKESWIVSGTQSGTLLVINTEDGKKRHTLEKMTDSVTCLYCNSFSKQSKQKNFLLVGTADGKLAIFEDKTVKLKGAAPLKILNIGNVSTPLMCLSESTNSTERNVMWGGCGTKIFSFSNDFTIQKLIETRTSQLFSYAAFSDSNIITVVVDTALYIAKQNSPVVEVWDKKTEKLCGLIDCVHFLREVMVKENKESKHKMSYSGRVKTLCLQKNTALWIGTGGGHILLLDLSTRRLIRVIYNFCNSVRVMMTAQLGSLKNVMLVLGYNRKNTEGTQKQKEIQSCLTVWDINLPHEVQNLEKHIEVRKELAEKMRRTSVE
Method: Pulldown experiments. Fresh lysate of HEK293 cells overexpressing GFP-tagged LRRK2 was mixed and incubated with biotin-labeled peptide (added to a final concentration of 10 μM) and incubated at 4° C. overnight. The mixture was then applied to Magnetic Strep-beads (MagStrep ‘Type3’ XT Beads (IBA, Gottingen, Germany)) and the immune complex was washed twice (10 mM Tris/HCl pH 7.5, 150 mM NaCl) and subjected to immunoblot analysis. Samples were separated on 6% Tris-Glycine gels, transferred onto a nitrocellulose membrane (GE Lifesciences), and processed for western analysis. Membranes were blocked in 5% dry milk in Tris-buffered saline plus Tween-20 for 1 hour and probed with rat monoclonal anti-LRRK2 (clone 24D8 1:1000, Gloeckner lab(69)) and incubated overnight at 4° C. with gentle shaking. Membranes were then washed three times for 10 min at room temperature in PBS containing 0.1% or 0.05% Tween-20 and then incubated for 1 hour with anti-rat IgG-HRP (sc-2750, Santa Cruz Biotechnology). Membranes were again washed three times for 10 min at room temperature in PBS containing 0.1% or 0.05 Tween-20. The membranes were coated with enhanced chemiluminescent (ECL) reagent (WesternSure PREMIUM, Li-COR biosciences), and proteins were detected using the C-Digit Imaging System (Li-COR Biosciences). […]

Method for HEK293 cells: Flow Cytometry. HEK293 cells were plated in 96-well plates (50 000/well) and allowed to grow 24 h in complete growth medium (DMEM supplemented with 10% fetal bovine serum, L-glutamine). DMEM was carefully aspirated and cells were treated with fresh pre-warmed complete growth medium supplemented with 10 μM of peptide or DMSO. After 6 hours, cells were analyzed on Beckman Cytoflex flow cytometer (Beckman Coulter). Using forward and side scattered light, a gate for intact, non-aggregated cells was defined and the fluorescence of 10,000 events was collected within this cell gate. The fluorescent channel for FITC (488-nm excitation [ex], 525-nm emission [em]) was used. Data was analyzed using FlowJo software and the reported fluorescent intensity values represent arithmetic means of the results determined for the analyzed cells.

Substance	Rab10 phosphorylation (pT73) [1]	dose dependence of cell uptake by flow cytometry (HEK293 cells)	LRRK2 pulled down by biotin-labeled peptide (immunoblot) (GFP-tagged LRRK2)
COR-domain stapled peptide formed from SEQ ID NO. 16 KGEGEXLLKXWK, X = (S)-2-(4′-pentenyl)alanine; PEG3 linker, FAM or biotin label (hydrocarbon staple; PEG3 linker; FAM or biotin; COR domain peptide; (6)..(6) Xaa is (S)-2-(4′-pentenyl)alanine; (10)..(10) Xaa is (S)-2-(4′-pentenyl)alanine) [LCIP1]	reduced Rab10 phosphorylation	dose-dependent uptake	successfully bound to LRRK2; also recorded: both peptides bound LRRK2
Roc-domain stapled peptide formed from SEQ ID NO. 6 DEKQRKAC(Nle)SKITKEXLNKX, X = (S)-2-(4′-pentenyl)alanine; PEG3 linker, FAM or biotin label (DEKQRKACXSKITKEXLNKX; hydrocarbon staple; Nle; PEG3 linker; FAM or biotin; ROC domain petide; (9)..(9) Xaa is norleucine; (16)..(16) Xaa is (S)-2-(4′-pentenyl)alanine; (20)..(20) Xaa is (S)-2-(4′-pentenyl)alanine) [LRIP4]	reduced Rab10 phosphorylation with LRIP4 inducing a more pronounced effect; also recorded: reduced after treatment with LRIP4 or LCIP1, with LRIP4 having a larger inhibitory effect	dose-dependent uptake	successfully bound to LRRK2; also recorded: pulled down considerably more LRRK2 as compared to LCIP1; also recorded: both peptides bound LRRK2
